Experimental data as given in publication PMC10339064.

Target: Peroxisome proliferator-activated receptor alpha (PPARα), wild type, FLAG-tagged (human) (UniProt Q07869)
Sequence of UniProt Q07869 (Q07869 whole entry): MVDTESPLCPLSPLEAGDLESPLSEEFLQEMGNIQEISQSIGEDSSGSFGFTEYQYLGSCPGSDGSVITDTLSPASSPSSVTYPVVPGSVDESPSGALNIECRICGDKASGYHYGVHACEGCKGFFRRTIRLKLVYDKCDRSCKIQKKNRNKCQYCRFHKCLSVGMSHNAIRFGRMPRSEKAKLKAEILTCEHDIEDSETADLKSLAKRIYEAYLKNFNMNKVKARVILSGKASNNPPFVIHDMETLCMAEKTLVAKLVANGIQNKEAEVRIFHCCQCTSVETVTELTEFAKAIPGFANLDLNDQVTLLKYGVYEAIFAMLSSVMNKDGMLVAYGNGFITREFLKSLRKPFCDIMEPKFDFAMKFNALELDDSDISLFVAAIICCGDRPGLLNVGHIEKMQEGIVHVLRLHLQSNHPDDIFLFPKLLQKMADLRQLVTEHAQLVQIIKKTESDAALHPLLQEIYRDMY

## C-terminal binding protein 2 (CtBP2), wild type, HA-tagged (from UniProt P56545 1-445) (natural protein)
  PPRE-driven luciferase reporter in HEK293 cells activated by ectopic PPARα; reduction by expression of CtBP2: 53%
